The text below walks through data of US20170052184A1 (published 2017).

Assay [1] has as its target T1, HCV Core1-169 recombinant antigen (hepatitis C virus (HCV-1), UniProt P26664 1-169).
T1 sequence: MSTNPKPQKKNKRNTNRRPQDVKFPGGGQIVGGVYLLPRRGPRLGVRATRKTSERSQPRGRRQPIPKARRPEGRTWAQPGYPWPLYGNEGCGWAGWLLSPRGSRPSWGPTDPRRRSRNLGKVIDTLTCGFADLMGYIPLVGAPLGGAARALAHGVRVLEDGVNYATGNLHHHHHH
Put plainly: sandwich EIA, 25 ng/ml core1-169; capture mAb 208B-395-334.

In assay [2] the target is T1, HCV Core1-169 recombinant antigen. Put plainly: sandwich EIA, 25 ng/ml core1-169; capture mAb C11-9.
For assay [3] the target is unchanged. Put plainly: sandwich EIA, 25 ng/ml core1-169; capture NC capture mAb.
The target is the same in assay [4]. The experiment in a line: sandwich EIA, 25 ng/ml core1-169; capture mAb 208B-1096.
For assay [5] the target is unchanged. Put plainly: sandwich EIA, 25 ng/ml core1-169; capture mAb 208B-741.
For assay [6] the target is unchanged. The experiment in a line: sandwich EIA, 25 ng/ml core1-169; capture mAb 208B-612-226.
For assay [7] the target is unchanged. The experiment in a line: sandwich EIA, 25 ng/ml core1-169; capture mAb 208A-207-271.
For assay [8] the target is unchanged. Put plainly: sandwich EIA, 25 ng/ml core1-169; capture mAb 208A-293.
Assay [9] shares this target. The experiment in a line: sandwich EIA, 25 ng/ml core1-169; capture mAb C11-7.
Assay [10] shares this target. Put plainly: sandwich EIA, 25 ng/ml core1-169; capture mAb 208A-692.
Assay [11] has the same target. Put plainly: sandwich EIA, 25 ng/ml core1-169; capture mAb 208A-110.
The target is the same in assay [12]. The experiment in a line: sandwich EIA, 25 ng/ml core1-169; capture mAb 208A-557.
In assay [13] the target is T2, HCV Core1-169 (HCV-1, UniProt P26664 1-169).
T2 construct: also called recombinant HCV core antigen
T2 sequence: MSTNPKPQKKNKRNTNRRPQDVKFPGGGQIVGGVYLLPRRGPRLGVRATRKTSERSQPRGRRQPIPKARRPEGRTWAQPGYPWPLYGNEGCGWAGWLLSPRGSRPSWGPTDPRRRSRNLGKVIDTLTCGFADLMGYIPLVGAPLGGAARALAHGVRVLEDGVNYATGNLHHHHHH
Put plainly: EIA, core1-169 captured by mAb 14-153-229.

Assay [14] deals with T2, HCV Core1-169. Put plainly: EIA, core1-169 coated on plate.

B1: HCV 208A-692 monoclonal antibody (antibody, V domains shown)
VH: QGQMQQSGAELAKPGASVKLSCKTSGFTFSSSYISWLKQKPGQSLEWIAWIFAGTGNTNYNQKFTDKAQLTVDTSSSTAYMQLSSLTTEDSAIYYCAISGTGFTYWGQGTLVTVSA
VL: EVLMTQSPLSLPVSLGDQASISCRSSQSLEHSNGNTYLEWFLQRPGQPPKLLIYKVSSRFSGVPDRFSGSGSGTDFTLKISRVEAEDLGVYYCFQGSHVPFTFGSGTKLAIKR
For B1, the OD492 nm was determined as 0.44 OD492 in [1]; 2.66 OD492 in [2]; 0.4 OD492 in assay [3]; 0.38 OD492 in assay [4]; 0.44 OD492 in assay [5]; 0.37 OD492 in [6]. The OD492 nm in assay [7] was 0.39 OD492; in [8] it was 0.51 OD492; in [9] it was 2.92 OD492; in assay [10], 0.35 OD492; in [11] it was 0.54 OD492; in assay [12], 0.53 OD492.

B2: HCV 208B-672 (antibody, V domains shown)
VH: EVKLVESGGSLVQPGGSLKLSCAASGFNFNTYAMSWVRQTPEKRLEWVAYISNGGGNTYYVDTVKGRFTISRDNAKNTLYLRMSSLKSEDTAMYYCARHGLYWGYSMDYWGQGTSVTVSS
VL: DIQMTQSPSSLSASLGERVSLTCRASQDIGGSINWLQQEPDGTIKRLIYATSSLDSGVPKRFSGSRSGSDYSLTISSLESEDFVDYYCLQYASSPPTFGGGTKLEIKR
On to B2, for which the “OD (A492)” value is 0.99 OD in the assay with HCV Core1-169 [13] and 1.77 OD in the assay with HCV Core1-169 [14].

B3: HCV 208B-517 (antibody, V domains shown)
VH: QVQLKQSGPGLVQPSQSLSITCTVSGFSLITHGVHWVRQSPGKGLEWLGVIWSGGSTDYNAAFISRLSISKDTSKSQVFLKMSSLQADDTAIYYCARNGGATAFDYWGQGTTLTVSS
VL: DIVMTQSPATLSVTPGDRVSLSCRASQSISDYLHWYQQKSHESPRLLIKYASQSISGIPSRFRGSGSGSHFTLSINSVEPEDVGVYYCQNGHSFPWTFGGGTKLEIKR
On to B3, for which the “OD (A492)” value with HCV Core1-169 [13] was 0.97 OD; in the assay with HCV Core1-169 [14], 0.79 OD.

B4: HCV 208B-822 (antibody, V domains shown)
VH: QVQLKQSGPGLVQPSQSLSITCTVSGFSLITYGVHWVRQSPGKGLEWLGVIWGGGSTGYNAAFVSRLNITKDNSKSQVFFKMNSLQPDDTAIYYCARNGGATVFDYWGQGTTLTVSS
VL: DIVMTQSPATLSVTPGDRVSLSCRASQTISDYLHWYQQKSHESPRLLIKYASQSISGIPSRFSGSGSGSHFTLSINSVEPEDVGVYYCQNGHSFPWTFGGGTKLEIKR
For B4, the “OD (A492)” value with HCV Core1-169 [13] was 0.12 OD; with HCV Core1-169 [14], 0.22 OD.

B5: HCV 208B-547 (antibody, V domains shown)
VH: QVQLQQSGAELAKPGASVKMSCKASGYTFTSNKMHWAKQRPGQGLEWIGYIDPSSGYTEYNQKIKDKATLTADKSSSTAYMQLSSLTSEDSAVYYCTNFAYWGQGTLVTVSA
VL: EVVLTQSPAITAASLGQKVTITCRASSSVSYMHWYRQKSGTSPQPWIYEISTLASGVPTRFRASGSGTSYSLTISSMEAEDAAIYYCQQWNYPLTFGAGTKLELKR
As for B5, the “OD (A492)” value with HCV Core1-169 [13] stood at 1.62 OD; in the assay with HCV Core1-169 [14] it was 0.46 OD.

B6: HCV 208A-210 (antibody, V domains shown)
VH: QVQLQQSGPELVKPGASMRISCKASGYTFTSYYVHWIKQRPGQGLEWIGCIYPGDVNTDYNEKFKGKATLTADKSSSTAYMQVSTLTSEDSAIYFCVLYYYGSFAYWGQGTLVTVSA
VL: EIVLTQSPAITAASLGQNVTITCRASSSVSYMHWYRQKSGTSPQLWIYEISRRASGVPARFRASGSGTSYSLTISSMEAEDAAIYYCQQWNYPLTFGAGTKLEVKR
For the molecule B6, the “OD (A492)” value in the assay with HCV Core1-169 [13] and in the assay with HCV Core1-169 [14] was 0.87 OD each time.

B7: HCV 208B-826 (antibody, V domains shown)
VH: DVQLVESGGGLVQAGGSRKLSCAASGFPFSSFGMHWVRQAPEKGLEWVASISSRTSKIYYADNLKGRFTISRDNPKNTLFLQMTSLGSEDTAMYYCVRSVFGNSYWFFDVWGAGTTVTVSS
VL: DIVLTQSPATLSVTPGDRVSLSCRASQRIYNYLHWYQQKSHESPRLLTKYASQSISGIPSRFSGSGSGTDFILTINSVETEDFGMYFCQQSNSWPLTFGAGTKLELRR
Regarding B7, the “OD (A492)” value with HCV Core1-169 [13] stood at 0.72 OD; in the assay with HCV Core1-169 [14], 0.65 OD.

B8: HCV 208A-207 (antibody, V domains shown)
VH: QGQLQQPGAEFVKPGASLKLSCRASGYTFTSYWIHWVKQRPGQGLEWIGEIDPSDSYINQNQKFRGKATLTVDKSSSTAYMELSGLTSEDSAVYYCARHYYGVLDSWGQGTTLTVSS
VL: DIVLTQSPATLSVTPGDRVSLSCRASQRIYNYLHWYQQKSHESPRLLTKYASQSISGIPSRFSGSGSGTDFILTINSVETEDFGMYFCQQSNSWPLTFGAGTKLELRR
B8: the “OD (A492)” value with HCV Core1-169 [13] was 0.41 OD; with HCV Core1-169 [14], 0.11 OD.

B9: HCV 208B-793 (antibody, V domains shown)
VH: EVKLVESGGGLVQPGGSLKLSCAASGFTFSSYAMSWVRQTPERRLEWVTYISNGGGSTYYSDTVKGRFTFSRDNAKNTLYLQMSSLKSEDTAMYYCARHGLGRTGFASWGQGTLVTVSA
VL: DIVMTQSHKFMSTSVGDRVSITCKASQDVGTAVAWYQQKPGQSPKLLIYWASTRHTGVPDRFTGSGSGTDFTLTISNVQSEDLADYFCQQYSNYLTFGAGTKLEVKR
In the case of B9, the “OD (A492)” value in the assay with HCV Core1-169 [13] came to 0.17 OD; with HCV Core1-169 [14] it was 0.85 OD.

B10: HCV 208B-911 (antibody, V domains shown)
VH: QVHLQQPGAELVRPGVSVKLSCKASGYTFTTYSINWMKQRPGQGLEWIGNIYPSTSHTNYNQKFRDKATMTVDKSSSTAYMQLSSPTSEDSAVYYCTINAYSMDYWGQGTSVTVSS
VL: QIVLTQSPEIMSASPGEKVTITCSASSSVSFMYWFQQKPGTSPKLWIYITSNLASGVPTRFSGSGSGTSYSLTISRMEAEDAATYYCQQRSSFPYTFGGGTKLEMKR
For B10, the “OD (A492)” value with HCV Core1-169 [13] was found to be 0.14 OD; in the assay with HCV Core1-169 [14], 1.18 OD.

B11: HCV 208A-110 monoclonal antibody (antibody, V domains shown)
VH: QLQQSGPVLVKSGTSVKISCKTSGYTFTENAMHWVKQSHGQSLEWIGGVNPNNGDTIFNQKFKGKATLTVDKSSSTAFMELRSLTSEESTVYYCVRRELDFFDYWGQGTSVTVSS
VL: DIVLTQSPASLAVSLGQRATISCRASQSVSTSRYSYMHWYQQKPGQPPKLLIKYASNLESGVPARFSGSGSGTDFTLNIHPVAEEDTAAYYCQHSWEFPFTFGSGTKLEIKR
Consider B11, for which the OD492 nm in assay [1] came to 0.22 OD492; in assay [2] it was 0.13 OD492; in assay [3], 0.15 OD492; in [4], 0.21 OD492; in assay [5], 0.2 OD492; in assay [6], 0.2 OD492. In addition, the OD492 nm worked out at 0.17 OD492 in [7]; 0.2 OD492 in [8]; 0.18 OD492 in [9]; 0.14 OD492 in [10]; 0.18 OD492 in [11]; 0.17 OD492 in [12].

B12: HCV 208A-293 monoclonal antibody (antibody, V domains shown)
VH: EVQLQQSGPELVKPGASVKISCKASGFTFTEYAMHWMKQSHGKSLEWIGGINPTNGDAIYNQKFKDKAKLTVDRSSSTAYMELRSLTSDDSALFYCARRELDYFPSWGQGTTLTVSS
VL: DIVLTQSPASLIVSLGQRATISCRASQSVSTSRFSYVHWIQQKPGQPPKLLIKYASNLESGVPVRFSGSGSGTDFILNIHPVEEEDTATYFCQHSWEFPFTFGSGTKLEIKR
For the molecule B12, the OD492 nm is 0.44 OD492 in assay [1]; 2.6 OD492 in assay [2]; 0.37 OD492 in assay [3]; 0.41 OD492 in assay [4]; 0.5 OD492 in assay [5]; 0.37 OD492 in assay [6]. Besides, the OD492 nm in [7] came out at 0.39 OD492; in assay [8], 0.49 OD492; in [9], 2.87 OD492; in [10] it was 0.34 OD492; in assay [11] it was 0.52 OD492; in [12] it was 0.52 OD492.

B13: HCV 208B-612 (antibody, V domains shown)
VH: EVQLQQSGPELVKPGASVKMSCKASGYRFTSYVMHWVRQKPGQGLEWIGYIDPHNDDTKYSEKFRGKATLTSDKSSTTAYMELSSLTSEDSAVYYCVRYSYDRDYSPMDYWGQGTSVTVSS
VL: QIVLTQSPTLMSASPGEKVTMTCSASSTVTYIYWYQQKPGSSPRLWMYDTFNLVSGVPARFSGSRSGTSYFLTISSMEGEDAATYYCQQYSDSPYTFGGGTKLEIKR
In the case of B13, the entries for the “OD (A492)” value with HCV Core1-169 [13] and with HCV Core1-169 [14] were 1.2 OD and 0.18 OD, respectively.
